Measurements from US20230174642A1, “AFFINITY-MATURATED ANTI-ASIC1a ANTIBODIES” (SHANGHAITECH UNIVERSITY, priority 2019, published 2023).
Changes are numbered by the printed parent chain.

T1: hASIC1a-mCherry fusion on a stable cell line (human, UniProt P78348 1-528)
T1 sequence (looked up): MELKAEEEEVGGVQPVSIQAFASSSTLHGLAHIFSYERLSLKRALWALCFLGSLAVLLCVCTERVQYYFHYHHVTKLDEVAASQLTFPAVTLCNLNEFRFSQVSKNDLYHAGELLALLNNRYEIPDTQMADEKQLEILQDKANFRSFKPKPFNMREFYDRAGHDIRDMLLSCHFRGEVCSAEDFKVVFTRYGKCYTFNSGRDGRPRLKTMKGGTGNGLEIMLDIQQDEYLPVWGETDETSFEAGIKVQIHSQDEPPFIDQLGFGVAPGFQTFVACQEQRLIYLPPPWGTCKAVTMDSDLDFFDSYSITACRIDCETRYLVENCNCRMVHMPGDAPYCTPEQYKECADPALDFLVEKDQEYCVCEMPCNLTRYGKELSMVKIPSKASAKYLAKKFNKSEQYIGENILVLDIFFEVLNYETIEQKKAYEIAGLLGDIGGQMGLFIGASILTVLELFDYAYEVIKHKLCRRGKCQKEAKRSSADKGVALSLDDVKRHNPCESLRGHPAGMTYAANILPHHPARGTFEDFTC

T2: recombinant extracellular domain of hASIC1a (hASIC1a-ECD) (human, UniProt P78348 67-427, limits assumed)
T2 construct: extracellular domain; ASIC1a is one splice isoform of it; also called trimeric ectodomain of hASIC1a
T2 sequence (looked up): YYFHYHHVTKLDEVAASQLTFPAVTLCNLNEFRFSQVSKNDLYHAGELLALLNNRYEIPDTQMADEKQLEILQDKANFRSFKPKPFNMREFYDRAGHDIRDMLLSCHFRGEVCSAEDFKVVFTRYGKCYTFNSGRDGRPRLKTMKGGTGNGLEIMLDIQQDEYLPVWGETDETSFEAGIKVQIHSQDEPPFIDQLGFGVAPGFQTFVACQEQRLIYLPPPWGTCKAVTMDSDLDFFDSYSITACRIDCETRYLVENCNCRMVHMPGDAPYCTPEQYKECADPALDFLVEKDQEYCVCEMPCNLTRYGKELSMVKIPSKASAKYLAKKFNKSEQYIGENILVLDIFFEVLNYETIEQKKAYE

T3: ASIC1a (Homo sapiens, UniProt P78348)
T3 construct: expressed in transfected cells
T3 sequence (P78348 1-528): T1 sequence (looked up)

T4: recombinant extracellular domain of hASIC1a (hASIC1a-ECD) (Homo sapiens, UniProt P78348)
T4 construct: recombinant extracellular domain of hASIC1a(hASIC1a-ECD)
T4 sequence (P78348 67-427 limits assumed): T2 sequence (looked up)

T5: hASIC1a on CHO-K1 cells stably expressing hASIC1a (human, UniProt P78348 1-528)
T5 sequence (looked up): T1 sequence (looked up)

B1: ASC06-03-IgG1 (antibody, V domains shown)
VH: QVQLQQSGGGLVQPGGSLRLSCAASGFTFSSYAMSWVRQAPGKGLEWVSAISGSGGSTYYADSVKGRFTISRDNSKNTLYLQMNSLRAEDTAVYYCAKDSFYGRAKGSWGQGTLVTVSS
VL: QSALTQPASVSGSPGQSITISCTGTSSDVGAYNYVSWYQQQPGKAPKLMIYGVSNRPSGVSNRFSGSKSGNAASLTISGLQAEDEADYYCSSYTSSSTYVFGTGTKLTVLG
notes: Full length IgG1
B2: ASC06-IgG1: parental (WT) ASIC1a-specific antagonist antibody; VL SEQ ID NO: 2, VH SEQ ID NO: 7, VH-CDR3 DSFYGYSKGD (antibody, V domains shown)
VH: B1 VH with R104Y, A105S, S108D
VL: B1 VL
modifications: IgG1 constant regions; Amino acid sequence VH of ASC06; Amino acid sequence VL of ASC06
B3: ASC06-02-IgG1: affinity-matured ASC06 derivative, VH-CDR3 DSFFGRAKGS (SEQ ID NO: 13) (antibody, V domains shown)
VH: B1 VH with Y102F
VL: B1 VL
B4: ASC06-01-IgG1: affinity-matured ASC06 derivative, VH-CDR3 DSYFGYSKGD (SEQ ID NO: 11) (antibody, V domains shown)
VH: B1 VH with F101Y, Y102F, R104Y, A105S, S108D
VL: B1 VL
B5: ASC06-04-IgG1: affinity-matured ASC06 derivative, VH-CDR3 DSFYGRAKGV (SEQ ID NO: 17) (antibody, V domains shown)
VH: B1 VH with S108V
VL: B1 VL
B6: ASC06-03-IgG1: affinity-matured ASC06 derivative, VH-CDR3 DSFYGRAKGS (SEQ ID NO: 15) (antibody, V domains shown)
VH: B1 VH
VL: B1 VL
B7: ASC06-01-IgG1 (antibody, V domains shown)
VH: B1 VH with F101Y, Y102F, R104Y, A105S, S108D
VL: B1 VL
notes: Full length IgG1
B8: ASC06-02-IgG1 (antibody, V domains shown)
VH: B1 VH with Y102F
VL: B1 VL
notes: Full length IgG1
B9: ASC06-IgG1 (antibody, V domains shown)
VH: B1 VH with R104Y, A105S, S108D
VL: B1 VL
notes: Tested as full length IgG1; also called WT antibody ASC06-IgG1; parental ASC06-IgG1 antibody
B10: ASC06-04-IgG1 (antibody, V domains shown)
VH: B1 VH with S108V
VL: B1 VL
notes: Full length IgG1

Key:
[1] = target: T1, hASIC1a-mCherry fusion on a stable cell …; assay: cell-based or functional assay
[2] = target: T2, recombinant extracellular domain of …; assay: SPR, Biacore T200, hASIC1a-ECD immobilized, IgG1 as analyte
Experimental: (§1) Binding affinities of four affinity-matured antibodies in IgG1 format (ASC06-01-IgG1 through ASC06-04-IgG1) to the recombinant extracellular domain of hASIC1a(hASIC1a-ECD) were measured using the Biacore T200™ (GE Healthcare). The ASC06-IgG1 antibody was used as a positive control. All manipulations were followed by the user guide of manufacturer. Briefly, was hASIC1a was immobilized, and serial dilutions of the indicated antibodies were added as analytes. The analysis of the results were processed in BIA Evaluation Software™.

ASIC1a [3] = target: T3, ASIC1a; assay: FLIPR-based fluorescent membrane potential (FMP) assay; assay type: cell-based; settings: increasing doses, pH 6
From the text: A fluorescence-based assay using the FLIPR Membrane Potential Assay Kit (FMP kit) (Molecular Devices) was used for functional characterization of ASC06-IgG1 and the affinity-matured derivatives thereof. Specifically, the role of ASIC1a in acidosis and the effect of the antibodies of current disclosure was probed further. The FMP dye in the kit is a lipophilic, anionic, bis-oxonol dye, which permits a sensitive evaluation of changes in membrane potential with a more rapid response time. Using the FMP kit, a sensitive cell-based assay to detect acid-induced ASIC1a currents was developed using a cell line stably expressing ASIC1a. The ASIC1a-expressing stable cells were seeded in 96-well plates. The cells were treated with different concentrations of ASC06-IgG1. Untreated cells were used as a negative control. ASIC1a was stimulated by inducing acidosis by decreasing the extracellular pH to 6, and the changes in the fluorescent signal of the FMP dye were measured. An isotype control was used as a negative control for binding. […] The assay was applied to detect the efficiency of inhibition of ASIC1a currents by ASC06-IgG1, and affinity-matured derivatives thereof.
Using similar assays, the IC50 values for inhibition of ASIC1a currents were calculated based on the maximal fluorescent intensity of each concentration of antibodies compared to the negative control.

[4] = target: T4, recombinant extracellular domain of hASIC1a (hASIC1a-ECD); assay: Biacore T200 binding affinity measurement; settings: Biacore T200, hASIC1a immobilized, antibody as analyte
Experimental: as §1

ASIC1a [5] = target: T3, ASIC1a; assay: FLIPR-based assay of ASIC1a-mediated calcium influx; assay type: cell-based; settings: increasing doses, pH 6
Experimental: The calcium influx of the ASIC1a channel was measured using a Fluorescence Imaging Plate Reader (FLIPR) instrument by measuring the fluorescent signal generated by the intracellular calcium indicator dye Calcium 5 (Molecular Devices) in a stable cell line expressing hASIC1a-m Cherry fusion.
The inhibition to calcium influx the affinity-matured ASC06-IgG1 derivative antibodies was also measured using the FLIPR-based assay. Using these assays, the IC50 values were calculated based on the maximal fluorescent intensity of the intracellular calcium indicator dye.

[6] = target: T5, hASIC1a on CHO-K1 cells stably …; assay: cell-based or functional assay

Molecule | IC50 for the inhibition of acid induced ASIC1a-mediated calcium influx, FLIPR-based assay [1] [nM] | Kd [2] [nM] | koff [2] [s⁻¹] | kon [2] [M⁻¹ s⁻¹] | inhibition of the fluorescent intensities (ASIC1a-mediated current) (ASIC1a [3]) | Ka [4] [M⁻¹ s⁻¹] | inhibition of calcium influx (ASIC1a [5]) | IC50 for the inhibition of ASIC1a currents, FMP assay [6] [nM]
B1 | 2.61 | 0.12 | 8.2e-05 | 680000 |  |  |  | 
B2 |  |  |  |  | dose-dependent inhibition | 4.7e+06 | dose-dependent inhibition | 
B3 |  |  |  |  |  | 1.3e+07 |  | 
B4 |  |  |  |  |  | 9.7e+06 |  | 
B5 |  |  |  |  |  | 620000 |  | 
B6 |  |  |  |  |  | 680000 |  | 
B7 | 2.24 | 0.1 | 0.000997 | 9.7e+06 |  |  |  | 74
B8 | 1.97 | 0.0125 | 0.000168 | 1.3e+07 |  |  |  | 30.5
B9 | 2.11 | 0.28 | 0.0013 | 4.7e+06 |  |  |  | 251
B10 |  | 0.26 | 0.000163 | 620000 |  |  |  | 51.8
